Among the data in publication PMC11441081 (2024) are Kd, koff and EC50 values, retold here.

Test [1] concerns the target T1, EIV-HA protein (hemagglutinin of equine influenza virus H3N8), wild type (equine influenza virus (H3N8)). Nature of the test: SPR. (In general: In SPR one partner is held on a chip, and binding of the other changes the refractive index at the surface.)
Test [2] deals with T1, EIV-HA protein (hemagglutinin of equine …). In words: SPR. The source holds these as a separate data set.
The target is the same in test [3]. Nature of the test: ELISA. For orientation: ELISA stands for enzyme-linked immunosorbent assay.

B1: H81 recombinant antibody (equine Ig (Fab)2 recombined with homo Ig Fc) (antibody, V domains shown)
VH: QVQLKESGPGLVKPSQTLSLTCTVSGLSLSSDAVGWVRQAPGKGLEWVACIYGDESTYYNPALKSRAGITKDTSKSQVYLTLNSLTGEDTAVYYCAGLVYEYYAGTWTIVFELKYWGQGILVTVSS
VL: QSLTQPASVSGTLGQTVTISCSGSSSNIGHRYSTVGWYQQIPGTAPKTLIYGSDKRASGVPDRFSGSKSGNTATLTISGLQAEDEADYYCGSYYYASSDSSGGAFGGGTHLTIA
In general, Kd refers to a measure of binding affinity in units of concentration. The term koff denotes the first-order rate constant of dissociation. A low value points to slow dissociation. For orientation: EC50 means the concentration that produces a half-maximal response. A lower EC50 goes with an effect from little substance. Molecule B1 displayed a Kd in test [1] of 10.1 nM. In test [2], this molecule came in with an off-rate (koff) of 8.52e-05 s⁻¹. The EC50 in test [3] came to 4.2 ng/mL.
